Reference: US20220396758A1 (University of California, published 2022)

Target: T1, covalently-linked trimer of an N-terminal truncated ClpX variant (ClpX-ΔN3) (E. coli, UniProt A7ZIJ6 62-424)
T1 construct: About 30-100 nM was present in the trans solution with ATP; also called synthetically designed trimer of ClpX subunits expressed as a single chain
Assay: nanopore ionic current recording; substrate cis, ClpX/ATP trans

B1: substrate protein S1 (single N-terminal Smt3 domain, 65-amino-acid charged flexible tail, C-terminal 11 amino acid ssrA tag) (other)
chain: MGSSHHHHHHGSGLVPRGSASMSDSEVNQEAKPEVKPEVKPETHINLKVSDGSSEIFFKIKKTTPLRRLMEAFAKRQGKEMDSLRFLYDGIRIQADQTPEDLDMEDNDIIEAHREQIGGGGSSGGSGGSGSSGDGGSSGGSGGSGSSGDGGSSGGSGGDGSSGDGGSDGDSDGSDGDGDSDGDDAANDENYALAA
notes: Engineered fusion expressed in E. coli BL21 (DE3)*; About 1-2 uM was added to the cis well; also called engineered Smt3 protein
binding result: binds
